This data set is described as follows: soluble on expression in E. coli; label from the status in PepcDB or PDB records.
On to “MLLFSAFLIFGFSIGFSEEASCRHPHERFIGTRCYAFVSKKHTYNTAKEYCDSHGYSLATVDNAITSNFLASSAATEFGSNNGQFWIGLSRKKDYELFNWDDGTIVSYTNFEAGFPNKQDFVAENVRNGRWQTLAEHKELEFVCSYDPTATTSAAPTTIPPTTTTTRAPTTTTVRKTTQTTATTMTTPKPTTTVSTTTTTTVPPTTTPKACPQGFVLFEPTQKCYIVLVYGNDSDYPDVPDDAPFLTRENQRCAKYGATVATIHSSDLNDLFRSLIYERFNDTRYATIGLRNIDMKTISGKWQWFDGTSPDYLNFGNMFPKTGDYIAQTSSQGFWVSYTHTAPNEGVVCSKNRKSERGFTGLVDIDQAAIKKLELQTYLK”, for which the “soluble on expression in E. coli” value is listed as “not soluble”.

As to “MLLQNILPFAHCLLRKALPEGGNALDGTAGNGHDTLFLAQTAGIRGKVWAFDIQPQALNNTRCRLQEAGYSNVRLILDGHENLKQYIPKPLDAAIFNFGWLPGGDKSLTTRTETSIAALSATLSLLKENGMLIAVLYPGHENGKQEAEAIEQWAKNLPQEQFAVLRYGFTNRKNSPPYLLVFEKLRQKLEHHHHHH”, the “soluble on expression in E. coli” value was “soluble”. The value for “MLLVSDIQTIQPSLNSVNEGGQKIKNEAEPEFASRLETELKELNTQWDHMCQQLEHHHHHH” was “not soluble”; that for “MLMPEMDRRRMMMMAGFGALAAALPAPTAWADPSRPAAPAGPTPAPAAPAAATGGLLFHDEFDGPAGSVPDPSKWQVSNHRTPIKNPVGFDRPQFFGQYRDSRQNVFLDGNSNLVLRATREGNRYFGGLVHGLWRGGIGTTWEARIKFNCLAPGMWPAWWLSNDDPGRSGEIDLIEWYGNGTWPSGTTVHANPDGTAFETCPIGVDGGWHNWRVTWNPSGMYFWLDYADGIEPYFSVPATGIEDLNEPIREWPFNDPGYKVFPVLNLAVGGSGGGDPATGSYPQEMLVDWVRVF” was “not soluble”; that for “MLMRQVLEEACLKSGFEVNSHRLQTQSRKPIDSSLPFRLTGLANNATLEMTQKEAVSENTIIELAIQTASGARHQKKVGVNQMLLDALKSFTSEFKEDLATTIDGSVPCIVYMNKRYTGAELAVNSLSSLGVASGKCLIRHMRVKLSDQELATMQAKLQEENERKKALDVNFVKLKAENAERDRLERLRQEAFDKDKESREKREQEQLRALIPEPASNIQDSTVMDTTESQQRDVLQEVPEQNPNSWSFDGPAFSRQVPQNTMRMEELNRLLERVDHSLATPAVESRMDAMVNALADGGRISLAEVRTRADVAMEQEQEEDPVEVFANPCDRQAVIYKKRARVQTTDEPMETEEFFEVGIEDVRNMQKDLRKAVRDQTQASFISKEYLAKKNRQLKLEAYKHTVIRISIGEHILQVYFNTAEQSSNLDLFLNNVLTRSGWKLMFTNLKVVTNELKNFVDIELAPKSTLIASFGGQTVNAADVVHNVIEVTPEKADAMSADWLSLNKTFMPFNSTVNDDRKQKRPQFQSSSSSSHSGPPAKSAMPKWLQTGKK” was “not soluble”. Consider “MLMSLAQCPGFLFAHREECTVEIKKIINPRYTESGAVDCDVFFDDRDQAVPYTATADDVAPTGQQIWQELQSGKWGEIAPFTVTPEMLEAAREARRQEIEAWRTEQEAKPFTFEWNGRTWNADASSVARLSPVVMLAKSVAAQTHMVWSDADNQQVKLSMPELEELAAAMVQAQVDRNDEIYRRQREMKEELSSLDDLASIRAFDVK”, for which the “soluble on expression in E. coli” value is “not soluble”. For “MLNLSRLSRKLLGWLGRPLSAAHSGEVRQRGPQTHVIILDGTMSTLEPGRETHAGQTYRLMCEMGARVSVFYEAGVQWTSWRTTPDVMMGRGLNRQIRRAYGYLASRYRPGDRIFLIGYSRGAYAVRSLAGVIDMVGLLKAEHATVRNIRQAYRHYECDVQGPHAQVFRDLYCHRDVMIEMVGVWDTVKALGLRLPVLWRLSEQRHAFHSHHLGRSVRHGYHALALNETRNVFEPILWDCKPEFRGHVEQVWFRGTHGDVGGQLGGDERARPLANLSLVWMLERAEHLGLPLPKDWHARFPTDPNAPSVGTWSGWGKIFLLRSARTVGRDPSERLHESVIGDTLPEGLPAPYLRSRSFGLEHHHHHH”, the “soluble on expression in E. coli” value is “soluble”. On to “MLNNGTFPLVFQFIHRRRKLLYYTKYHIFQQQLADGALEVEYCEASLYSMKEIKEINRELKRDYKRFQNRILELERNNEEYLVDDIVEFKKKKSHRSYLLMQYIETQISYKKKMGKDGIAAAYHSTYISLKKYIGMKSARKSDIRMEEINFSFVVGYEDYLNAQGLARNTINYYLRNFRTIYNSSIRDGFKPKSENPFTYIQTKPCKTIKRAINKDDMKKLSSLILPVHSGMDIARDMYLFSFYAQGMAFVDIVFLKKKNIRDGILSYRRHKSQQLIHIVITPQMQGLIDKYANDSEYVFPIIDTSLSTSIYDQYRLALGRVNRYLKKITFRLNINVRLTTYTARHTWATLARESGAPISIISAGLGHTSEEMTRVYLKEFDQETLARVNRIVTNLL”, for which the “soluble on expression in E. coli” value is listed as “not soluble”. Consider “MLNQKIQNPNPDELMIEVDLCYELDPYELKLDEMIEAEPEPEMIEGLPASDALTPADRYLELFEHVQSAKIFPDSKTFPDCAPKMDPLDILIRYRKVRRHRDFDLRKFVENHFWLPEVYSSEYVSDPQNSLKEHIDQLWPVLTREPQDHIPWSSLLALPQSYIVPGGRFSETYYWDSYFTMLGLAESGREDLLKCMADNFAWMIENYGHIPNGNRTYYLSRSQPPVFALMVELFEEDGVRGARRYLDHLKMEYAFWMDGAESLIPNQAYRHVVRMPDGSLLNRYWDDRDTPRDESWLEDVETAKHSGRPPNEVYRDLRAGAASGWDYSSRWLRDTGRLASIRTTQFIPIDLNAFLFKLESAIANISALKGEKETEALFRQKASARRDAVNRYLWDDENGIYRDYDWRREQLALFSAAAIVPLYVGMANHEQADRLANAVRSRLLTPGGILASEYETGEQWDKPNGWAPLQWMAIQGFKMYGDDLLGDEIARSWLKTVNQFYLEQHKLIEKYHIADGVPREGGGGEYPLQDGFGWTNGVVRRLIGLYGEPLEHHHHHH”, for which the “soluble on expression in E. coli” value is given as “not soluble”. The value for “MLNSFKLSLQYILPKLWLTRLAGWGASKRAGWLTKLVIDLFVKYYKVDMKEAQKPDTASYRTFNEFFVRPLRDEVRPIDTDPNVLVMPADGVISQLGKIEEDKILQAKGHNYSLEALLAGNYLMADLFRNGTFVTTYLSPRDYHRVHMPCNGILREMIYVPGDLFSVNHLTAQNVPNLFARNERVICLFDTEFGPMAQILVGATIVGSIETVWAGTITPPREGIIKRWTWPAGENDGSVALLKGQEMGRFKLGSTVINLFAPGKVNLVEQLESLSVTKIGQPLAVSTETFVTPDAEPAPLPAEEIEAEHDASPLVDDKKDQVMGHHHHHHSH” was “not soluble”.

With “MLNSVKKLLGDSQKRKLKKYEQLVQEINNLEEKLSDLSDEELRHKTITFKDMLRDGKTVDDIKVEAFAVVREAAKRVLGLRHYDVQLIGGLVLLEGNIAEMPTGEGKTLVSSLPTYVRALEGKGVHVITVNDYLAKRDKELIGQVHEFLGLKVGLNIPQIDPSEKKLAYEADITYGIGTEFGFDYLRDNMAASKNEQVQRPYHFAIIDEIDSVLIDEAKTPLIIAGKKSSSSDLHYLCAKVIKSFQDTLHYTYDAESKSASFTEDGITKIEDLFDIDNLYDLEHQTLYHYMIQALRAHVAFQCDVDYIVHDEKILLVDIFTGRVMDGRSLSDGLHQALEAKEGLEITEENQTQASITIQNFFRMYPALSGMTGTAKTEEKEFNRVYNMEVMPIPTNRPIIREDKKDVVYVTADAKYKAVREDVLKHNKQGRPILIGTMSILQSETVARYLDEANITYQLLNAKSAEQEADLIATAGQKGQITIATNMAGRGTDILLGEGVHELGGLHVIGTERHESRRVDNQLKGRAGRQGDPGSSQFFLSLEDEMLKRFAQEEVEKLTKSLKTDETGLILTSKVHDFVNRTQLICEGSHFSMREYNLKLDDVINDQRNVIYKLRNNLLQEDTNMIEIIIPMIDHAVEAISKQYLVEGMLPEEWDFASLTASLNEILSVENMPSLSANNVHSPEDLQSVLKETLSLYKERVNELDSNTDLQQSLRYVALHFLDQNWVNHLDAMTHLKEGIGLRQYQQEDPTRLYQKEALDIFLYTYGNFEKEMCRYVARHLGVPENVQ”, the “soluble on expression in E. coli” value is “not soluble”.

Regarding “MLNTLIVGASGYAGAELVTYVNRHPHMNITALTVSAQSNDAGKLISDLHPQLKGIVELPLQPMSDISEFSPGVDVVFLATAHEVSHDLAPQFLEAGCVVFDLSGAFRVNDATFYEKYYGFTHQYPELLEQAAYGLAEWCGNKLKEANLIAVPGCYPTAAQLALKPLIDADLLDLNQWPVINATSGVSGAGRKAAISNSFCEVSLQPYGVFTHRHQPEIATHLGADVIFTPHLGNFPRGILETITCRLKSGVTQAQVAQALQQAYAHKPLVRLYDKGVPALKNVVGLPFCDIGFAVQGEHLIIVATEDNLLKGAAAQAVQCANIRFGYAETQSLI”, the “soluble on expression in E. coli” value is recorded as “not soluble”. For “MLPEKSEIVVIGGGIVGVTIAHELAKRGEEVTVIEKRFIGSGSTFRCGTGIRQQFNDEANVRVMKRSVELWKKYSEEYGFSFKQTGYLFLLYDDEEVKTFKRNIEIQNKFGVPTKLITPEEAKEIVPLLDISEVIAASWNPTDGKADPFEATTAFAVKAKEYGAKLLEYTEVKGFLIENNEIKGVKTNKGIIKTGIVVNATNAWANLINAMAGIKTKIPIEPYKHQAVITQPIKRGTINPMVISFKYGHAYLTQTFHGGIIGGIGYEIGPTYDLTPTYEFLREVSYYFTKIIPALKNLLILRTWAGYYAKTPDSNPAIGRIEELNDYYIAAGFSGHGFMMAPAVGEMVAELITKGKTKLPVEWYDPYRFERGELRTAALQMG”, the “soluble on expression in E. coli” value is recorded as “soluble”. Consider “MLPKAARIPHAMTLHGDTRIDNYYWLRDDTRSQPEVLDYLQQENSYGHRVMASQQALQDRILKEIIDRIPQREVSAPYIKNGYRYRHIYEPGCEYAIYQRQSAFSEEWDEWETLLDANKRAAHSEFYSMGGMAITPDNTIMALAEDFLSRRQYGIRFRNLETGNWYPELLDNVEPSFVWANDSWIFYYVRKHPVTLLPYQVWRHAIGTPASQDKLIYEEKDDTYYVSLHKTTSKHYVVIHLASATTSEVRLLDAEMADAEPFVFLPRRKDHEYSLDHYQHRFYLRSNRHGKNFGLYRTRMRDEQQWEELIPPRENIMLEGFTLFTDWLVVEERQRGLTSLRQINRKTREVIGIAFDDPAYVTWIAYNPEPETARLRYGYSSMTTPDTLFELDMDTGERRVLKQTEVPGFYAANYRSEHLWIVARDGVEVPVSLVYHRKHFRKGHNPLLVYGYGSYGASIDADFSFSRLSLLDRGFVYAIVHVRGGGELGQQWYEDGKFLKKKNTFNDYLDACDALLKLGYGSPSLCYAMGGSAGGMLMGVAINQRPELFHGVIAQVPFVDVVTTMLDESIPLTTGEFEEWGNPQDPQYYEYMKSYSPYDNVTAQAYPHLLVTTGLHDSQVQYWEPAKWVAKLRELKTDDHLLLLCTDMDSGHGGKSGRFKSYEGVAMEYAFLVALAQGTLPATPAD”, for which the “soluble on expression in E. coli” value is reported as “not soluble”. The value for “MLPSTMFLVHLPLSTNRLHCLRNTSLESCLCSFVHLNHPLHISDPVILISLHEAVRFSFAFSFPRGTLSIAYCLMSSVSTSSEAIMSTELLANYCHSSLHVCICISSFPNETGNHDSFPGAVVSISDQPTDQCKLAAKELPLRNLLECRFFDCMGEEDLINLGVIGTER” was “soluble”.

The values above are taken from the DeepSol protein solubility set.
